In the Human Domainome abundance scans (Beltran et al. 2025) one finds abundance fitness data, which are given here for 159 variants.

± gives the uncertainty stated by the source.

First the molecules themselves.
B1: FERM and PDZ domain-containing protein 4, residues 75 to 154; numbered along this chain, Q14CM0 (parent)
chain: APRKVEMRRDPVLGFGFVAGSEKPVVVRSVTPGGPSEGKLIPGDQIVMINDEPVSAAPRERVIDLVRSCKESILLTVIQP

In this data set the parent is B1. Description: abundance fitness (aPCA) (normalised: wild type 0, dead -1); higher = more abundant; growth selection in yeast, the domain comes from the species named. Conditions: Homo sapiens.
Consider I63R, for which the abundance fitness was -0.033 ± 0.03.
On to I63Q, for which the abundance fitness is -0.001 ± 0.042.
With I63K, the abundance fitness was -0.032 ± 0.037.
Under I63A stands 0.005 ± 0.04; under I63N, 0.034 ± 0.039; under I63V, -0.002 ± 0.032.
Under I63P stands -0.846 ± 0.088; under I63T, -0.061 ± 0.033; under I63E, -0.031 ± 0.041.
For I63S, the abundance fitness stood at 0.021 ± 0.03.
Consider I63Y, for which the abundance fitness is -0.087 ± 0.043.
For the variant I63D, the abundance fitness was -0.035 ± 0.044.
For I63C, the abundance fitness is -0.093 ± 0.044.
With I63L, the abundance fitness was determined as 0.009 ± 0.03.
I63M: the abundance fitness is -0.027 ± 0.035.
In the case of I63W, the abundance fitness was -0.041 ± 0.043.
As for I63F, the abundance fitness was 0.016 ± 0.04.
For the variant I63H, the abundance fitness is -0.003 ± 0.039.
Consider P80M, for which the abundance fitness was -0.181 ± 0.048.
Consider P80K, for which the abundance fitness is -0.138 ± 0.054.
As for P80H, the abundance fitness was -0.165 ± 0.066.
Turning to P80R, the abundance fitness was -0.146 ± 0.04.
Under P80F stands -0.387 ± 0.13.
As to P80C, the abundance fitness is -0.157 ± 0.11.
Take P80G: the abundance fitness is -0.074 ± 0.036.
For P80L, the abundance fitness was -0.387 ± 0.042.
In the case of P80D, the abundance fitness was -0.28 ± 0.11.
Take P80W: the abundance fitness is -0.403 ± 0.064.
Regarding P80E, the abundance fitness is -0.164 ± 0.053.
As to P80A, the abundance fitness was -0.086 ± 0.033.
On to P80Y, for which the abundance fitness was -0.356 ± 0.07.
Under P80V stands -0.23 ± 0.039; under P80S, -0.066 ± 0.028.
For the variant P80I, the abundance fitness was -0.413 ± 0.11.
Take P80N: the abundance fitness was -0.058 ± 0.085.
For P80T, the abundance fitness is -0.066 ± 0.033.
As to P80Q, the abundance fitness came out at 0 ± 0.05.
As for V77I, the abundance fitness is -0.098 ± 0.032.
In the case of V77C, the abundance fitness is -0.07 ± 0.029.
Under V77H stands -0.681 ± 0.056; under V77R, -0.728 ± 0.025; under V77L, -0.105 ± 0.021.
On to V77T, for which the abundance fitness is -0.231 ± 0.028.
As to V77G, the abundance fitness was -0.653 ± 0.023.
Take V77Y: the abundance fitness is -0.815 ± 0.078.
Consider V77S, for which the abundance fitness was -0.655 ± 0.03.
Take V77K: the abundance fitness was -0.523 ± 0.033.
Take V77W: the abundance fitness was -0.981 ± 0.041.
With V77M, the abundance fitness is -0.475 ± 0.031.
For V77D, the abundance fitness is -0.658 ± 0.044.
In the case of V77A, the abundance fitness was -0.259 ± 0.023.
In the case of S72N, the abundance fitness was -0.028 ± 0.028.
Turning to S72K, the abundance fitness is 0.009 ± 0.027.
Consider S72T, for which the abundance fitness was -0.011 ± 0.026.
For S72W, the abundance fitness was -0.234 ± 0.029.
In the case of S72Y, the abundance fitness is -0.129 ± 0.029.
With S72H, the abundance fitness was -0.015 ± 0.029.
Turning to S72R, the abundance fitness was -0.019 ± 0.021.
As to S72C, the abundance fitness was -0.111 ± 0.032.
Regarding S72D, the abundance fitness was -0.014 ± 0.029.
In the case of S72V, the abundance fitness is -0.104 ± 0.023.
As to S72M, the abundance fitness is -0.11 ± 0.028.
Turning to S72F, the abundance fitness is -0.167 ± 0.028.
Turning to S72Q, the abundance fitness is -0.004 ± 0.027.
With S72I, the abundance fitness was -0.177 ± 0.029.
S72A: the abundance fitness was -0.072 ± 0.024.
For the variant S72P, the abundance fitness is -0.284 ± 0.028.
For L74A, the abundance fitness is -0.006 ± 0.032.
On to L74Y, for which the abundance fitness is 0.131 ± 0.092.
Turning to L74F, the abundance fitness was found to be 0.016 ± 0.062.
Turning to L74V, the abundance fitness turned out to be 0.012 ± 0.031.
In the case of L74C, the abundance fitness amounted to 0.038 ± 0.05.
With L74M, the abundance fitness turned out to be 0.011 ± 0.043.
Regarding L74H, the abundance fitness amounted to 0.005 ± 0.13.
Under L74Q stands 0.03 ± 0.045; under L74N, -0.035 ± 0.079.
With L74E, the abundance fitness turned out to be 0.005 ± 0.034.
In the case of L74P, the abundance fitness is -0.366 ± 0.068.
Consider L74W, for which the abundance fitness was -0.024 ± 0.037.
Under L74I stands 0.145 ± 0.096.
L74G: the abundance fitness came to 0.009 ± 0.026.
Turning to L74S, the abundance fitness stood at 0.024 ± 0.038.
The value for L74T was -0.014 ± 0.043; that for L74K was 0.026 ± 0.049; that for L74D was 0.012 ± 0.05.
Regarding L74R, the abundance fitness stood at 0.037 ± 0.031.
Under D64W stands -0.222 ± 0.033; under D64H, -0.045 ± 0.028.
On to D64T, for which the abundance fitness is -0.109 ± 0.026.
Regarding D64Y, the abundance fitness is -0.252 ± 0.031.
On to D64V, for which the abundance fitness was -0.593 ± 0.032.
For the variant D64I, the abundance fitness was -0.788 ± 0.051.
For D64Q, the abundance fitness is -0.013 ± 0.029.
Under D64L stands -0.466 ± 0.025; under D64E, -0.011 ± 0.031; under D64P, -0.51 ± 0.034.
For D64A, the abundance fitness is -0.081 ± 0.025.
As for D64R, the abundance fitness is -0.049 ± 0.025.
Consider D64F, for which the abundance fitness was -0.354 ± 0.031.
The value for D64K was -0.06 ± 0.029; that for D64C was -0.295 ± 0.031; that for D64M was -0.247 ± 0.031.
D64S: the abundance fitness was -0.023 ± 0.023.
The value for D64N was -0.055 ± 0.03.
D64G: the abundance fitness is -0.038 ± 0.028.
As for C69F, the abundance fitness is -0.159 ± 0.029.
Under C69I stands -0.19 ± 0.03; under C69S, -0.025 ± 0.021.
Under C69P stands -0.378 ± 0.028; under C69N, -0.056 ± 0.027; under C69G, -0.209 ± 0.025.
In the case of C69E, the abundance fitness is -0.059 ± 0.029.
With C69R, the abundance fitness was -0.119 ± 0.022.
On to C69D, for which the abundance fitness was -0.323 ± 0.034.
For C69L, the abundance fitness was -0.236 ± 0.022.
Take C69T: the abundance fitness was -0.044 ± 0.023.
Regarding C69Q, the abundance fitness was -0.034 ± 0.027.
Regarding C69W, the abundance fitness is -0.591 ± 0.034.
For C69H, the abundance fitness is -0.064 ± 0.028.
The value for C69M was -0.1 ± 0.028; that for C69K was -0.089 ± 0.026; that for C69A was 0.004 ± 0.023.
Consider C69V, for which the abundance fitness is -0.091 ± 0.023.
The value for L75R was -0.631 ± 0.045; that for L75D was -0.343 ± 0.062.
Take L75Q: the abundance fitness was -0.542 ± 0.096.
On to L75F, for which the abundance fitness was -0.101 ± 0.047.
With L75K, the abundance fitness is -0.387 ± 0.07.
As to L75A, the abundance fitness was -0.332 ± 0.04.
Consider L75C, for which the abundance fitness is -0.257 ± 0.052.
As for L75M, the abundance fitness is -0.022 ± 0.041.
With L75V, the abundance fitness is -0.097 ± 0.032.
The value for L75N was -0.773 ± 0.19.
The value for L75P was -0.185 ± 0.075; that for L75T was -0.404 ± 0.063.
In the case of L75E, the abundance fitness was -0.514 ± 0.054.
Turning to L75S, the abundance fitness was -0.558 ± 0.051.
With L75W, the abundance fitness is -0.629 ± 0.048.
Regarding L75H, the abundance fitness was -0.553 ± 0.2.
As for L75Y, the abundance fitness is -0.749 ± 0.13.
In the case of L75I, the abundance fitness is -0.118 ± 0.066.
Take I73E: the abundance fitness was -0.463 ± 0.037.
On to I73T, for which the abundance fitness is -0.202 ± 0.038.
Consider I73N, for which the abundance fitness was -0.369 ± 0.052.
With I73W, the abundance fitness is -0.954 ± 0.057.
Turning to I73V, the abundance fitness was -0.025 ± 0.027.
Under I73F stands -0.242 ± 0.057; under I73L, -0.023 ± 0.029.
Under I73P stands -0.57 ± 0.061; under I73S, -0.462 ± 0.037.
Regarding I73G, the abundance fitness was -0.565 ± 0.032.
Under I73C stands -0.045 ± 0.039.
Regarding I73R, the abundance fitness is -0.669 ± 0.036.
Under I73H stands -0.793 ± 0.17; under I73Y, -0.755 ± 0.092.
In the case of R67K, the abundance fitness was 0.002 ± 0.027.
Under R67V stands -0.079 ± 0.021; under R67T, -0.018 ± 0.026.
Turning to R67W, the abundance fitness is -0.182 ± 0.024.
